Measurements from patent US9188587.

What was measured:
[1] = molecular target: I^125-αDTX-labelled VGKCs (Kv1 complexes) in digitonin-solubilised rabbit cortex extract
[2] = molecular target: I^125-αDTX-labelled VGKCs (Kv1 complexes) in digitonin-solubilised rabbit cortex extract; remark: listed apart in the source

goat anti Lgi1 antibody (Santa Cruz C19 sc-9583 and N18 sc-9581)
percent of total I^125-αDTX binding sites precipitated [1]: > 60%
percent of αDTX binding sites immunoprecipitated [2]: 61%
